Results on one substance are retold here after PMC4241985.

This assay addresses transmembrane domain of Thermus thermophilus MgtE (278-450) (Thermus thermophilus) (UniProt Q5SMG8). The experiment in a line: crystal structure.

The term stoichiometry N denotes the number of molecules, sites or subunits per partner or assembly. In turn, “transmembrane domain of Thermus thermophilus MgtE (278-450) (from UniProt Q5SMG8 278-450) (domain or fragment)” had a stoichiometry N of 2.
